Biological target: rat luteal LH/CG receptor (LH/CG-R) expressed from the cloned cDNA (expression vector pCLHR) in transiently transfected human kidney 293 cells (rat) (UniProt P16235)

For “human choriogonadotropin, highly purified (CR-123; 12,780 IU/mg) (from UniProt P01215) (ligand)”, which EC50 of cAMP production is on record?
The EC50 of cAMP production was 0.04 to 0.08 nM.

— patent US20050042205A1
